The record followed here is the supplement of paper PMC12042874.

± gives the uncertainty stated by the source.

The nature of this series: amyloid nucleation score (Sup35N fusion, yeast selection) (log enrichment); library NNK1; higher = more nucleation; inactive = no reads after selection. The method in brief:
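Yeast lacking psi expressed peptides of 20 random codons fused to Sup35N, received 100 μM copper sulfate for 24 hours, and were then grown for 7 days at 30°C on medium lacking adenine and uracil. Illumina sequencing of input and output plasmid inserts provided the reads. Nucleation scores are DiMSum log enrichments of output over input, centred on the mode of non-aggregating sequences. Any sequence with under 100 input reads was excluded.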
Substance KTFYFTQLYSDYRLFFETGK came in with an amyloid nucleation score of 0.558 ± 0.46.

KTGTYWKSDGCVLWFGVKPA: the amyloid nucleation score stood at 0.32 ± 0.38.

KTMMIGFNNMWGGVQ returned an amyloid nucleation score of 3.34 ± 0.21.

KVFQQGC: the amyloid nucleation score is -0.165 ± 1.6.

Substance KVFYVLLHGSILSNRGMWQT displayed an amyloid nucleation score of -0.725 ± 1.2.

The substance KVLNFNLSRACLLWDSFNSV showed an amyloid nucleation score of 2.65 ± 0.19.

For the substance KVVDNAYSSDSLYFVGLFFW, the amyloid nucleation score was determined as 1.25 ± 0.84.

KWGVCVLTHLGRYWLLLGCG returned an amyloid nucleation score of -0.145 ± 0.66.

As to KWSWGGPRDMIFKDTLAGAR, the amyloid nucleation score entry was “inactive”.

KWVIGRTVLGRADVRWSSGR displayed an amyloid nucleation score of 1.58 ± 0.46.

In the case of KYIYNPSPLGSREDDTKACR, the amyloid nucleation score was 0.937 ± 0.49.

For KYKRSYTLDHVFYMSSPGVR, the amyloid nucleation score came out at 0.824 ± 0.73.

For the substance KYLPPQVSSGWI, the amyloid nucleation score was 1.01 ± 0.37.

Take KYRASYRNHRDMGDSAVYGY: the amyloid nucleation score is 0.044 ± 0.26.

Substance KYWVGWAVSFCVWYLTRLWE gave an amyloid nucleation score of 0.337 ± 0.67.

The substance KYWWY came in with an amyloid nucleation score of 0.265 ± 0.2.

The substance LAFTNRVVVWESWSAMAVRW returned an amyloid nucleation score of -0.173 ± 0.66.

For the substance LAIFSMFALFSIFGWSNDFT, the amyloid nucleation score is -0.309 ± 0.43.

In turn, LAISL came in with an amyloid nucleation score of -0.444 ± 0.36.

Substance LAIVGQACRGVVEHARVSGH showed an amyloid nucleation score of 0.136 ± 0.41.

LAKFESSEVACSLFFAISLA showed an amyloid nucleation score of -0.997 ± 0.94.

With LAKGGPL, the amyloid nucleation score was -0.813 ± 0.54.

Turning to LALLWDMPF, the amyloid nucleation score was -2.19 ± 2.7.

In turn, LALMFFNLKSCIFMSMWLFT displayed an amyloid nucleation score of 1.65 ± 0.57.

As to LALPIFAFER, the amyloid nucleation score is -0.839 ± 0.46.

As for LAMFHSWGVGFATLGVKISE, the amyloid nucleation score was 1.04 ± 0.78.

The substance LAPASLSSSGYKNCFNRTVR showed an amyloid nucleation score of 4.08 ± 0.11.

The substance LAQELGR came in with an amyloid nucleation score of 1.68 ± 0.73.

LASSIFASFRTFVQPSVSGY showed an amyloid nucleation score of -0.146 ± 0.48.

With LCCRLMTTICPKLCSVLLMS, the amyloid nucleation score was 0.217 ± 0.28.

LCEVRDCWVL: the amyloid nucleation score was found to be 0.783 ± 0.41.

LCFMLEKWHLF: the amyloid nucleation score was -0.566 ± 1.1.

Consider LCGISSSCYVVGSLRVIWLS, for which the amyloid nucleation score was determined as 0.147 ± 0.65.

The substance LCKPCLGY registered an amyloid nucleation score of 0.639 ± 0.24.

LCLGCGYGEETI displayed an amyloid nucleation score of 0.069 ± 0.37.

In turn, LCLLPG yielded an amyloid nucleation score of 0.888 ± 0.5.

On to LCLSCLWMGETRPRSNPVNL, for which the amyloid nucleation score amounted to 6.24 ± 0.068.

Substance LCLVFVNLVLQRYGIASWYT registered an amyloid nucleation score of 0.531 ± 0.3.

In the case of LCMVAQLWYQPV, the amyloid nucleation score came to 2.01 ± 0.16.

For LCVFVKAGVCWGRTVIRKSG, the amyloid nucleation score result was “inactive”.

Substance LDFMSLHN showed an amyloid nucleation score of 0.218 ± 1.

Substance LDGGIIRRILVIVKCWGRCC registered an amyloid nucleation score of 0.108 ± 0.2.

As for LDHYDVSGNRMVL, the amyloid nucleation score was -0.487 ± 0.27.

For the substance LDIRVCRLPRSVFNR, the amyloid nucleation score is -0.002 ± 1.

LDLSSWGTVP displayed an amyloid nucleation score of 0.122 ± 0.44.

Consider LDMKSFEQLVKQLPCTWADD, for which the amyloid nucleation score was determined as 0.222 ± 0.41.

In turn, LDSDGVASYDTRMSIRWYIE registered an amyloid nucleation score of 2 ± 0.49.

Turning to LDWAWFYCSRNKRFSTILFR, the amyloid nucleation score turned out to be 0.138 ± 0.79.

LDYSSRSPLTDLST: the amyloid nucleation score came to 0.041 ± 0.65.

In turn, LECYEVYRYRKCLCCIVCVC gave an amyloid nucleation score of 0.633 ± 0.42.

As for LEGVFAAALSNKMIRYIRDV, the amyloid nucleation score turned out to be 1.19 ± 0.53.

Turning to LERYVSMRFSWWDSSKKNTW, the amyloid nucleation score turned out to be 4.18 ± 0.086.

LFDNFIAHMGCSRIPYDSHS yielded an amyloid nucleation score of -0.086 ± 0.3.

Take LFFTGVHRKF: the amyloid nucleation score stood at 4.28 ± 0.064.

Consider LFHANQKHAGWSRASTLEAC, for which the amyloid nucleation score was -0.954 ± 0.54.

LFHCRSIDRNLYYRHAFLIY displayed an amyloid nucleation score of 0.466 ± 0.39.

Turning to LFHLPSVYIWFYAT, the amyloid nucleation score stood at 6.723 ± 0.053.

For the substance LFIDVSR, the amyloid nucleation score is -0.021 ± 1.6.

With LFLCMDTYIYLNLNSGGYSG, the amyloid nucleation score is 4.8 ± 0.1.

As to LFLHVSMVS, the amyloid nucleation score is -1.31 ± 1.4.

In turn, LFLKRGPSCTCLLRKSTIEH registered an amyloid nucleation score of 0.182 ± 0.69.

In turn, LFNGLYHLVMRVMWRRLV gave an amyloid nucleation score of -0.061 ± 1.2.

For the substance LFRRRKITTVYIDKNAMLTS, the amyloid nucleation score result is “inactive”.

With LFVHFLTLSVISHYPRGN, the amyloid nucleation score result is “inactive”.

LFVLKTWLRNSDWFRYDESQ displayed an amyloid nucleation score of -0.094 ± 0.68.

The substance LFYLFPELMWDMQLCKVDGW yielded an amyloid nucleation score of 1.4 ± 0.44.

The substance LGFAA displayed an amyloid nucleation score of -0.339 ± 1.3.

LGFAW: the amyloid nucleation score is 0.003 ± 0.45.

In the case of LGFQLFNQGWAQNSTPRFSY, the amyloid nucleation score is -1.29 ± 1.9.

For the substance LGGVSSVLFYSHFLQVLEWC, the amyloid nucleation score was -1.12 ± 0.78.

Substance LGIFSNIYGFV displayed an amyloid nucleation score of 0.277 ± 0.45.

In the case of LGLDGCSSMLEEDFCR, the amyloid nucleation score turned out to be 0.45 ± 0.52.

LGLGQSGRV showed an amyloid nucleation score of -0.15 ± 0.71.

Substance LGLMTFFVWFNWG came in with an amyloid nucleation score of -1.43 ± 1.

Regarding LGRGSGYRVLVMYLSVHC, the amyloid nucleation score turned out to be 0.164 ± 0.29.

In turn, LGRKKGFMTYSGLYYVRLWA showed an amyloid nucleation score of -0.81 ± 1.4.

As for LGRRIPCNLEWHHLDGALTR, the amyloid nucleation score was 0.013 ± 0.36.

Substance LGRSENDI gave an amyloid nucleation score of 1.19 ± 0.4.

Take LGSRFMRV: the amyloid nucleation score is 0.635 ± 1.2.

In turn, LGSVDIRAQCLVNMNMLLSS registered an amyloid nucleation score of 0.308 ± 0.43.

LGTKL registered an amyloid nucleation score of 0.601 ± 0.63.

As to LGTSEKGNRKNR, the amyloid nucleation score entry was “inactive”.

The substance LGTVRVLEHEVVWHYVLEAR returned an amyloid nucleation score of 0.485 ± 0.6.

LGVMMFRCVL came in with an amyloid nucleation score of 3.79 ± 0.16.

On to LGVPRVISCSCHLSVRNSAK, for which the amyloid nucleation score stood at 0.413 ± 0.9.

With LHAGHSSLNALAYSFRLHDR, the amyloid nucleation score worked out at 0.775 ± 0.52.

LHAGRDSAASGPRISIWKPM registered an amyloid nucleation score of 0.077 ± 0.38.

LHAYTLSYGLLVLSARSHEL displayed an amyloid nucleation score of -0.01 ± 0.67.

With LHCARGLVRRNMSSSLRWLA, the amyloid nucleation score entry is “inactive”.

LHESVFSWSSKLSLRHGYLR: the amyloid nucleation score was 0.159 ± 0.7.

In the case of LHIFLTLHNQHVWARNGGKL, the amyloid nucleation score turned out to be 0.603 ± 0.35.

On to LHIIRRNRDSIAFVYWTV, for which the amyloid nucleation score came out at 0.756 ± 0.41.

LHLFGQ showed an amyloid nucleation score of 0.067 ± 0.38.

Substance LHMTFFTPVDLVVQRTDFRL came in with an amyloid nucleation score of 0.971 ± 0.52.

For the substance LHRSQMIFMCLSVTYSAK, the amyloid nucleation score was -0.209 ± 0.47.

LHTAETGRLHNAYVILVVYC: the amyloid nucleation score result was “inactive”.

LHVISGFYKCRTKRL returned an amyloid nucleation score of 0.862 ± 0.32.

LIAPGFPERCRQGRMYEF yielded an amyloid nucleation score of -0.234 ± 1.2.

With LICNFRLSRYQSAVNVVYWV, the amyloid nucleation score is 0.802 ± 0.14.

LIFNQLWWRKSMCLQVRPGQ showed an amyloid nucleation score of -1.25 ± 0.92.

LIFRRGTALFVLPVARYRCA: the amyloid nucleation score was -1.57 ± 1.8.

LIGFAGRVYGAFLQVSMTWN came in with an amyloid nucleation score of 3.2 ± 0.15.

LIGRIGDFLA displayed an amyloid nucleation score of 0.097 ± 0.72.

In the case of LILSYAN, the amyloid nucleation score was determined as 1.33 ± 0.66.

Turning to LINDRPPSSAMERRNVATSS, the amyloid nucleation score came to 0.096 ± 0.57.
